The values below come from PMC8115288.

The target of assay [1] is GST-SAP18 (UniProt O00422). Kind of assay: pull-down; GST-INI1, GST-SAP18, GST-LEDGF or GST-Gemin2 as bait, His6-IN(WT) or His6-IN(W235E) as prey; bound protein quantified as fraction bound after normalising to the loading control.
For assay [2], the target named is GST-Gemin2 (UniProt O14893). Put plainly: GST-pull down, quantitation of bound protein. The note with it: parent: est. 1.0; read off a plot.
In assay [3] the target is GST-LEDGF (UniProt O75475). Kind of assay: GST-pull down, quantitation of bound protein. The note with it: parent: est. 1.0; read off a plot.
Sequence of GST-LEDGF (O75475 whole entry): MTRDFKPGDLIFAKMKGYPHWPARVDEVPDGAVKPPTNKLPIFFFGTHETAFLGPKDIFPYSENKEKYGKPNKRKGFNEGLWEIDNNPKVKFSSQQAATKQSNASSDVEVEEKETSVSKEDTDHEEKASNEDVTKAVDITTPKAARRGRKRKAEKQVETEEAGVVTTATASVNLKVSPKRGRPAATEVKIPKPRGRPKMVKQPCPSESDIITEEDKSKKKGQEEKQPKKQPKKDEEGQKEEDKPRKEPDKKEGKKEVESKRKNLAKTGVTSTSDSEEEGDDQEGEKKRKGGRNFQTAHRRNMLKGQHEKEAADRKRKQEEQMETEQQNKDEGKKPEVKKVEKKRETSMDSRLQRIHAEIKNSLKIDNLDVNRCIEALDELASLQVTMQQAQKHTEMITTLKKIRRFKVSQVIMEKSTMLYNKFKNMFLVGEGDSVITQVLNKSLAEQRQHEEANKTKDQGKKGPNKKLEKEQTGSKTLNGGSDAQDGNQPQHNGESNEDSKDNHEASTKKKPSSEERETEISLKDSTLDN

Sequence of GST-SAP18 (O00422 whole entry): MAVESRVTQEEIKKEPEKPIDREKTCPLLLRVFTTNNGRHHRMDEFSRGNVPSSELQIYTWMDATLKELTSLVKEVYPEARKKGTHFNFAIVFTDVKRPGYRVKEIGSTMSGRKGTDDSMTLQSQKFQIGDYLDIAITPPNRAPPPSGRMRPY
Sequence of GST-Gemin2 (O14893 whole entry): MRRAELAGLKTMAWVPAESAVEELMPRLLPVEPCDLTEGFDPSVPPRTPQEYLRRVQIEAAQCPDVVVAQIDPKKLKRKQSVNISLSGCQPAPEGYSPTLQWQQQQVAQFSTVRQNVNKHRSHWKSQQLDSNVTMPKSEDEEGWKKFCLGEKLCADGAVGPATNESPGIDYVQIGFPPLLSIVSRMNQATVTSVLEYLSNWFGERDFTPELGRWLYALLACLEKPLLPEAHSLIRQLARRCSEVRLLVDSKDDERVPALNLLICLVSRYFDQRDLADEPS

His6-IN(W235E) (enzyme) displayed a % binding in assay [1] of 20%.
On to His6-IN(WT) W235E, for which the ratio to parent came to 0.8 in assay [2] and 0.82 in assay [3].
